# T1: neuromedin-B preferring receptor (NMB-R) on C6 rodent glioblastoma cells (rodent, UniProt P24053 1-390, limits assumed)
# T1 construct: whole, on cells; also called C6/NMB-R
# T1 sequence (looked up): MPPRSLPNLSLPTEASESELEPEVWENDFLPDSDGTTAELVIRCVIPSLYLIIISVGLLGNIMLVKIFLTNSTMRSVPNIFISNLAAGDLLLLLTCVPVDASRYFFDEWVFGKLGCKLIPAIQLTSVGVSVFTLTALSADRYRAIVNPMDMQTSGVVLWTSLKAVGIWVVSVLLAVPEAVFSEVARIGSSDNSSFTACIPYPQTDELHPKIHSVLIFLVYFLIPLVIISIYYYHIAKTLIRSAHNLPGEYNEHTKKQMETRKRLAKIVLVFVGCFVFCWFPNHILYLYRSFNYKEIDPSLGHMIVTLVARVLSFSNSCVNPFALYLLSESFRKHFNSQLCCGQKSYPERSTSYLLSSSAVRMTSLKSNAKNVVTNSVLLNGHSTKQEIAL
# How the values were obtained:
# [1] = molecular target: T1, neuromedin-B preferring receptor …; test: 125I-NMB competition, C6 cells
# [2] = molecular target: T2, gastrin releasing peptide receptor (GRP-R) (human, UniProt P30550 1-384); test: 125I-BBN competition, PC3 cells
# T2 construct: whole, on cells; also called GRP receptor; BB2
# T2 sequence (P30550 whole entry): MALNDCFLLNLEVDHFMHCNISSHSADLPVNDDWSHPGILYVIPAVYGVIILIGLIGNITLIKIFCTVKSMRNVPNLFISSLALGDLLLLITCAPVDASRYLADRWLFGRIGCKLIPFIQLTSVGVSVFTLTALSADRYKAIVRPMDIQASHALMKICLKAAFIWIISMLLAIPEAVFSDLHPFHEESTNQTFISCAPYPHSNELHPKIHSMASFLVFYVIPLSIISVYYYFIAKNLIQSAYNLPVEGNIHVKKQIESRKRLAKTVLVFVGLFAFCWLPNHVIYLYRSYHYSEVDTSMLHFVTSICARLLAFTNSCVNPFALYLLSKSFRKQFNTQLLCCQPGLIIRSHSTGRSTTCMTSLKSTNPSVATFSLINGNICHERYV
IC50 [1] [nM],IC50 [2] [nM],Binder
60,–,"QWAVGHLM (N-term: N,N-dimethylglycine-Ser-Cys(Acm)-Gly-Lys-Glu; C-term amide) [N,N-dimethylglycine-Ser-Cys(Acm)-Gly-KE-QWAVGHLM-NH2]"
–,2,"QWAVGHLM (N-term: N,N-dimethylglycine-Ser-Cys(Acm)-Gly-Ser-Lys; C-term amide) [N,N-dimethylglycine-Ser-Cys(Acm)-Gly-SK-QWAVGHLM-NH2]"
2,–,"QWAVGHLM (N-term: N,N-dimethylglycine-Ser-Cys(Acm)-Gly-Ser-Arg; C-term amide) [N,N-dimethylglycine-Ser-Cys(Acm)-Gly-SR-QWAVGHLM-NH2]"

# — patent US20130136691A1 (BRACCO IMAGING S P A, published 2013)
